From patent publication US6746858B1, “Murd protein and gene of Streptococcus pyogenes” (Merck & Co. Inc., priority 1997, dated 2004)

B1: S. pyogenes: recombinant Streptococcus pyogenes MurD protein (SEQ ID NO:2), His-tag removed, partially purified (protein)
chain: MKVISNFQNKKILILGLAKSGEAAAKLLTKLGALVTVNDSKPFDQNPAAQALLEEGIKVICGSHPVELLDEDFEYMVKNPGIPYDNPMVKRALAKEIPILTEVELAYFVSEAPIIGITGSNGKTTTTTMIADVLNAGGQSALLSGNIGYPASKVVQKAIAGDTLVMELSSFQLVGVNAFRPHIAVITNLMPTHLDYHGSFEDYVAAKWMIQAQMTESDYLILNANQEISATLAKTTQATVIPFSTQKVVDGAYLKDGILYFKEQAIIAATDLGVPGSHNIENALATIAVAKLSGIADDIIAQCLSHFGGVKHRLQRVGQIKDITFYNDSKSTNILATQKALSGFDNSRLILIAGGLDRGNEFDDLVPDLLGLKQMIILGESAERMKRAANKAEVSYLEARNVAEATELAFKLAQTGDTILLSPANASWDMYPNFEVRGDEFLATFDCLRGDA
modifications: His-tag removed; Streptococcus pyogenes MurD

Tests used:
E. coli MurD = E. coli MurD (Escherichia coli, UniProt P14900); conditions: 350 μM UDP-N-acetyl-muramyl-L-alanine
Description: The ATP-dependent MurD activity was assayed by monitoring the formation of product ADP using the pyruvate kinase and lactate dehydrogenase coupled enzyme assay. The reaction was monitored spectrophotometrically.
Typically, the assay contained 100 mM BIS-TRIS-propane, pH 8.0, 200 μM NADH, 1 mM ATP, 20 mM PEP, 5 mM MgCl2, 1 mM DTT, 350 μM UDP-N-acetyl-muramyl-L-alanine, 1 mM D-glutamate, 33 units/ml of pyruvate kinase and 1660 units/ml of lactate dehydrogenase in a final volume of 200 or 400 μL. The mixture was incubated at 25° C. for 5 min and the reaction initiated by the addition of 1-10 μg of MurD. ADP formation was monitored by the decrease in absorbance at 340 nm as a function of time using a Molecular Devices SpectramaxPlus microtiterplate spectrophotomer (for 200 μl assays) or a Hewlett-Packard HP8452A spectrophotometer equipped with a circulating water bath (for 400 μl assays). Rates were calculated from the linear portions of the progress curves using the extinction coefficient for NADH, e=6220 cm^−1 M^−1. One unit of MurD activity is equal to 1 μmol of ADP formed per min at 25° C.
Assays have been conducted using 120 and 350 μM UDP-N-acetyl-muramyl-L-alanine.

S. pyogenes MurD = assay: ATP-dependent MurD activity, pyruvate kinase/lactate dehydrogenase coupled enzyme assay (ADP formation); type: biochemical, Streptococcus pyogenes; conditions: partially purified, UDP-N-acetylmuramyl-L-ala 350 μM, D-glutamate 1 mM, ATP 1 mM, 200 μl, 25° C.
Description: The cell pellet from 100 ml of induced culture prepared as described above was resuspended in 10 ml BT buffer (50 mM bis-tris-propane, pH 8.0, containing 100 mM potassium chloride and 1% glycerol) at 4° C. Cells were lysed either by freeze-thaw or by French Press. After centrifugation, the supernatant was mixed with 15 ml of freshly prepared Talon resin and incubated for 30 min at room temp. The resin was washed twice by centrifugation with 25 ml of BT buffer at room temperature. Finally, the resin loaded into a column and washed with 20 ml of BT, pH 7.0, containing 5 mM imidazole. Protein was eluted with 20 ml of BT buffer pH 8.0, containing 100 mM imidazole. Fractions (0.5 ml) were collected and analyzed by SDS-Gel electrophoresis. Fractions containing MurD were pooled, cleaved with thrombin (20 units/mg of His-tagged MurD) to remove the histidine tag. Finally the MurD protein was purified on Superdex 75 size exclusion column and eluted in 10 mM tris, pH 7.4, 150 mM NaCl and dialyzed in 100 mM MOPS, pH 7.5, using a Slide-A-Lyzer (Pierce, Rockford, Ill.). […] The protein may be purified further, if desired, using methods known in the art.
The reaction was monitored spectrophotometrically.

Chain of E. coli MurD (P14900 whole entry): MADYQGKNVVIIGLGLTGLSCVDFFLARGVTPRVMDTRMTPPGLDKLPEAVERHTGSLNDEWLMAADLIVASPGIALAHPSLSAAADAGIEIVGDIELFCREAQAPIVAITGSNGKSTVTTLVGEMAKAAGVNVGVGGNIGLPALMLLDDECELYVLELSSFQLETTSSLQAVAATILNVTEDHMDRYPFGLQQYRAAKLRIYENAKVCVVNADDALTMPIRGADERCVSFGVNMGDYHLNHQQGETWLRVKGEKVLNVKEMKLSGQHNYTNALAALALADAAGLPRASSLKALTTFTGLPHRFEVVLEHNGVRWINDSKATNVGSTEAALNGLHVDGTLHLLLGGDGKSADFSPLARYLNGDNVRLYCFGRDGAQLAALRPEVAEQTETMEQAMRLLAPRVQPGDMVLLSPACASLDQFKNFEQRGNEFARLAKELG

Molecule	substrate inhibition of the E. coli MurD (E. coli MurD)	units (S. pyogenes MurD; 0.00137 mg protein) [µmol/min]	Specific activity (S. pyogenes MurD) [µmol/min/mg]
CC(=O)N[C@H]1C(OP(=O)(O)OP(=O)(O)OC[C@H]2O[C@@H](n3ccc(=O)[nH]c3=O)[C@H](O)[C@@H]2O)O[C@H](CO)[C@@H](O)[C@@H]1O[C@H](C)C(=O)N[C@H](C)C(=O)O (stereo partly drawn) [UDP-N-acetyl-muramyl-L-alanine]	substrate inhibition		
B1		0.00017	0.13
